Experimental findings from article PMC8439105 (Current biology : CB, 2021) are described below.

Assay [1] has as its target HA-tagged LC3B-T50A (phospho-deficient mutant) (UniProt Q9GZQ8 1-120, T50A). Description: affinity purification with mass spectrometry.
The target in assay [2] is HA-tagged LC3B-T50E (phospho-mimetic mutant) (UniProt Q9GZQ8 1-120, T50E). Description: affinity purification with mass spectrometry.
For another assay, the target named is His-tagged LC3B-WT (human, UniProt Q9GZQ8 1-120). Briefly: BLI. On the technique in general: Biolayer interferometry detects binding as a change in optical thickness at a sensor tip.
The target in a further assay is His-tagged LC3B-T50A (human, UniProt Q9GZQ8 1-120, T50A). Description: BLI.
For the next assay, the target named is His-tagged LC3B-T50E (human, UniProt Q9GZQ8 1-120, T50E). Briefly: BLI.

One may read the Kd as the free concentration of one partner at which half of the binding sites on the other are occupied at equilibrium, for simple one-to-one binding. A high value points to a looser complex.

B1: FYCO1 (endogenous, human cells) (natural protein)
chain: MASTNAESQLQRIIRDLQDAVTELSKEFQEAGEPITDDSTSLHKFSYKLEYLLQFDQKEKATLLGNKKDYWDYFCACLAKVKGANDGIRFVKSISELRTSLGKGRAFIRYSLVHQRLADTLQQCFMNTKVTSDWYYARSPFLQPKLSSDIVGQLYELTEVQFDLASRGFDLDAAWPTFARRTLTTGSSAYLWKPPSRSSSMSSLVSSYLQTQEMVSNFDLNSPLNNEALEGFDEMRLELDQLEVREKQLRERMQQLDRENQELRAAVSQQGEQLQTERERGRTAAEDNVRLTCLVAELQKQWEVTQATQNTVKELQTCLQGLELGAAEKEEDYHTALRRLESMLQPLAQELEATRDSLDKKNQHLASFPGWLAMAQQKADTASDTKGRQEPIPSDAAQEMQELGEKLQALERERTKVEEVNRQQSAQLEQLVKELQLKEDARASLERLVKEMAPLQEELSGKGQEADQLWRRLQELLAHTSSWEEELAELRREKKQQQEEKELLEQEVRSLTRQLQFLETQLAQVSQHVSDLEEQKKQLIQDKDHLSQQVGMLERLAGPPGPELPVAGEKNEALVPVNSSLQEAWGKPEEEQRGLQEAQLDDTKVQEGSQEEELRQANRELEKELQNVVGRNQLLEGKLQALQADYQALQQRESAIQGSLASLEAEQASIRHLGDQMEASLLAVRKAKEAMKAQMAEKEAILQSKEGECQQLREEVEQCQQLAEARHRELRALESQCQQQTQLIEVLTAEKGQQGVGPPTDNEARELAAQLALSQAQLEVHQGEVQRLQAQVVDLQAKMRAALDDQDKVQSQLSMAEAVLREHKTLVQQLKEQNEALNRAHVQELLQCSEREGALQEERADEAQQREEELRALQEELSQAKCSSEEAQLEHAELQEQLHRANTDTAELGIQVCALTVEKERVEEALACAVQELQDAKEAASREREGLERQVAGLQQEKESLQEKLKAAKAAAGSLPGLQAQLAQAEQRAQSLQEAAHQELNTLKFQLSAEIMDYQSRLKNAGEECKSLRGQLEEQGRQLQAAEEAVEKLKATQADMGEKLSCTSNHLAECQAAMLRKDKEGAALREDLERTQKELEKATTKIQEYYNKLCQEVTNRERNDQKMLADLDDLNRTKKYLEERLIELLRDKDALWQKSDALEFQQKLSAEERWLGDTEANHCLDCKREFSWMVRRHHCRICGRIFCYYCCNNYVLSKHGGKKERCCRACFQKLSEGPGSPDSSGSGTSQGEPSPALSPASPGPQATGGQGANTDYRPPDDAVFDIITDEELCQIQESGSSLPETPTETDSLDPNAAEQDTTSTSLTPEDTEDMPVGQDSEICLLKSGELMIKVPLTVDEIASFGEGSRELFVRSSTYSLIPITVAEAGLTISWVFSSDPKSISFSVVFQEAEDTPLDQCKVLIPTTRCNSHKENIQGQLKVRTPGIYMLIFDNTFSRFVSKKVFYHLTVDRPVIYDGSDFL
In the case of B1, the figures for the “fold change of binding against HA-LC3B-WT” value in assay [1] and in assay [2] were ~2 fold higher and ~5 fold lower, respectively.
Consider GQGANTDYRPPDDAVFDIITDEELCQIQESGSSL [FYCO1 peptide (1265–1298 amino acids of the human protein)], for which the results for the Kd with His-tagged LC3B-WT, with His-tagged LC3B-T50A and with His-tagged LC3B-T50E were ~4.1 µM, ~6 µM and ~28 µM, respectively.
